Test results: article PMC13188885, “Zero-valent sulfur is the product of assimilatory sulfite reductase and a substrate of cysteine synthase” (Applied and Environmental Microbiology, 2026)

How the values were obtained:
Assay in all cases: mBBr-HPLC of cysteine released by TCEP; Michaelis-Menten fit
Conditions in all cases: O-acetyl-L-serine co-substrate 1.0-2.0 mM, 100 µM PLP, pH 7.4, 30 °C
[1] = substrate: O=S(O)(O)=S; assay type: biochemical, Saccharolobus islandicus
Text: (§1) mBBr-HPLC of cysteine released by TCEP; Michaelis-Menten fit on SiRe_1641 | We then assayed the kinetics of all five cysteine synthases

[2] = substrate: N[C@@H](CCC(=O)N[C@@H](CSS)C(=O)NCC(=O)O)C(=O)O; assay type: biochemical, Saccharolobus islandicus
Text: as §1

[3] = substrate: O=S(O)(O)=S; assay type: biochemical, Escherichia coli
Text: (§2) mBBr-HPLC of cysteine released by TCEP; Michaelis-Menten fit on EcCysM | We then assayed the kinetics of all five cysteine synthases

[4] = substrate: N[C@@H](CCC(=O)N[C@@H](CSS)C(=O)NCC(=O)O)C(=O)O; assay type: biochemical, Escherichia coli
Text: as §2

[5] = substrate: O=S(O)(O)=S; assay type: biochemical, Escherichia coli; remark: listed apart in the source
Text: (§3) mBBr-HPLC of cysteine released by TCEP; Michaelis-Menten fit on EcCysK | We then assayed the kinetics of all five cysteine synthases

[6] = substrate: N[C@@H](CCC(=O)N[C@@H](CSS)C(=O)NCC(=O)O)C(=O)O; assay type: biochemical, Escherichia coli; remark: listed apart in the source
Text: as §3

B1: SiRe_1641 (Saccharolobus islandicus REY15A) (protein)
chain: MSNPLHVFSNEQELLEGMWPTPLLKLRIGNDTWAKLEFYNPFSRSVKDRTAWFLFRQALIKNVNHIVEATSGNTGIALASLSSIYGMQFTMFLPVVAPKVYKVLVKLLGGNVIEAGNSTNDVIPLVKRFAEMSNAVNLDQFNNPINVIAHYETTAREIDEQLTSIGKRPSRIIATMGTGGHIAGVAKYFKEKYGNDVEIVGVQPSENSRIPGIKRQNGSNSLLRDIKIDRVVDVSLEEAIDGTISVARTSGILIGISAGATVAAYKRINDVSSTTVLIFPDDAFKYVDILEQTLKEI
notes: N-terminal His-tag, expressed in E. coli BL21(DE3), Ni-NTA
- Km [1]: 1126 ± 162 µM
- Vmax [1]: 0.065 µM/min/mg
- kcat [1]: 1.52 ± 0.511 s⁻¹
- Km [2]: 279 ± 32 µM
- Vmax [2]: 0.174 µM/min/mg
- kcat [2]: 4.92 ± 1.27 s⁻¹

B2: EcCysM (Escherichia coli K-12) (protein)
chain: MSTLEQTIGNTPLVKLQRMGPDNGSEVWLKLEGNNPAGSVKDRAALSMIVEAEKRGEIKPGDVLIEATSGNTGIALAMIAALKGYRMKLLMPDNMSQERRAAMRAYGAELILVTKEQGMEGARDLALEMANRGEGKLLDQFNNPDNPYAHYTTTGPEIWQQTGGRITHFVSSMGTTGTITGVSRFMREQSKPVTIVGLQPEEGSSIPGIRRWPTEYLPGIFNASLVDEVLDIHQRDAENTMRELAVREGIFCGVSSGGAVAGALRVAKANPDAVVVAIICDRGDRYLSTGVFGEEHFSQGAGI
notes: as for B1
- Km [3]: 408 ± 28 µM
- Vmax [3]: 0.173 µM/min/mg
- kcat [3]: 5.81 ± 0.92 s⁻¹
- kcat/Km [3]: 12600 M⁻¹ s⁻¹
- Km [4]: 325 ± 33 µM
- Vmax [4]: 0.155 µM/min/mg
- kcat [4]: 5.16 ± 1.55 s⁻¹
- kcat/Km [4]: 14700 M⁻¹ s⁻¹

B3: EcCysK (Escherichia coli K-12) (protein)
chain: MSKIFEDNSLTIGHTPLVRLNRIGNGRILAKVESRNPSFSVKCRIGANMIWDAEKRGVLKPGVELVEPTSGNTGIALAYVAAARGYKLTLTMPETMSIERRKLLKALGANLVLTEGAKGMKGAIQKAEEIVASNPEKYLLLQQFSNPANPEIHEKTTGPEIWEDTDGQVDVFIAGVGTGGTLTGVSRYIKGTKGKTDLISVAVEPTDSPVIAQALAGEEIKPGPHKIQGIGAGFIPANLDLKLVDKVIGITNEEAISTARRLMEEEGILAGISSGAAVAAALKLQEDESFTNKNIVVILPSSGERYLSTALFADLFTEKELQQ
notes: as for B1
- Km [5]: 1036 ± 82 µM
- Vmax [5]: 0.074 µM/min/mg
- kcat [5]: 2.45 ± 0.935 s⁻¹
- Km [6]: 265 ± 37 µM
- Vmax [6]: 0.163 µM/min/mg
- kcat [6]: 9.78 ± 0.665 s⁻¹
